In the DeepSol protein solubility set:

Assay: soluble on expression in E. coli; label from the status in PepcDB or PDB records

Sequence | soluble on expression in E. coli
MGSDKIHHHHHHFDKIPTNPNLYHDVSSFSTADLTGKVQKIKLGSKFKIRSLITNKAKTPVFKLSNGRFIRASHDNVYEDIVLRRENVKGSYWLKKTFTVYQTPYVAGTKIANTKLTNYNKVHISQKAITKHGIYLKADGQGWINEKDLTVQDNRMEKVQALLTRKYNKPNYSIYVKQLKTRKTAGINEDKSMYSASVTKLPILYFIEKQIKDGRVKLTDKFKYIEQVNQFKGAYKVEGSGEMPKKADNKYYTVDSLLKAVTQHSDNVASNILGYYIAHQYDKTYQKTVLRVADVKWNMESRNVSSKTAANVMEALYSQKSPVISYLTSTEFDNTRISRDIAVPVAHKVGDAYDYKHDVAIIYADQPFILSVFTDKSSYEDISTIADDVYGILK | not soluble
MGSDKIHHHHHHFEERSGVVPCGTPWGQWYQTLEEVFIEVQVPPGTRAQDIQCGLQSRHVALAVGGREILKGKLFDSTIADEGTWTLEDRKMVRIVLTKTKRDAANCWTSLLESEYAADPWVQDQMQRKLTLERFQKENPGFDFSGAEISGNYTKGGPDFSNLEKDGT | not soluble
MGSDKIHHHHHHGKKDKEKIIDDFKVAVVTQPLSENKVQYNMVEEMAKEYEEENKIDKDKDGQTKVKQTIKHVVLPENFTSNIDSAINKIVKLADDKEVQAIVVSTDQAGLLPALQKVKEKRPEIITISAPMGDDKNQLSQFVDVNLGVSAEERGKVLAERSKEMGAKAFIHYASTDDLKDVNIAKRLEMIKETCKNIGLPFVQVNTPNINTEEDKNKVKQFLNEDIEKQVKKYGKDINVFGVNEYMDEVILTKALELKYIVAEQSNPSPIQTYPSVMGLKISEKDAQNYDKINDMISEKAKAFGMSNRLGGYPMPMDAFLPSLAIYLATEMVKQDLTQEDVCDPDYLEAFTELRFGIGSEFTPLTEVLYNYQSVILSQLIY | not soluble
MGSDKIHHHHHHGTVSWNLREMLAHAEETRKLMPICMDVRAIMATIQRKYKGIKIQEGIVDYGVRFFFYTSKEPVASIITKLNSLNEPLVTMPIGYVTHGFNLEEAARCMRSLKAPAVVSVSSPDAVTTYNGYLTSSSKTSEEHFVETVSLAGSYRDWSYSGQRTELGVEFLKRGDKIVYHTLESPVEFHLDGEVLSLDKLKSLLS | soluble
MGSDKIHHHHHHKFIIFTYKDSYINQSATFHSDRTNLNIKREKCDFSFFNISIGHKLSLSLQNLIINPFNYMAFTNNIMIVRHRLLTELVKLWKNGELTTDKIDRLPLELSPRRSKHAGRCCVHKERAVWKYKSLPLLGLDMDDETDELTPLSEYAARSIERANNGKPKDNIMCVIDEACSACVQINYEITDLCRGCTARSCQYNCPKGAVHVHADTGKAWIDHDTCISCGICHKSCPYHAIVYIPVPCEESCPVKAISKDEHGIEHIDENKCIYCGKCMNACPFGAIFEISQTFDVLQRIRKGEQVVAIVAPSILGQFSTTIEQVYGAFRQIGFTDIIEVAQGAMSTVEHEAHELIEKLEEGQKFMTTSCCPSYIELVNKYIPDMKKYVSGTGSPMYYAARIAKEKYPDAKIVFVGPCVAKRKEAQRDEAVDFVMTFEEISSIFDAFEINLEIVQPYAMEFSSVREAHGFAQAGGVMGAVKAFLKMEADKINAIQVSDLNKKNIGTLRAYAKSGKAPGQFIEVMACEGGCITGPSTHSGSNNGKRQLVQELAKQKKTY | not soluble
MGSDKIHHHHHHKGHRVTGSDANVYPPMSTQLEEQGIELIQGFDPSQLGDAGSYPDIVVIGNAMSRGNPCVEAVLNLGIPYTSGPQFLVDHILPERWVLAVSGTHGKTSTSSMLAWILEDCGYQPGFLIGGVPQNFGVSARLGESAFFVVEADEYDSAFFDKRSKFVHYHPRTLVINNLEFDHADIFADLAAIQKQFHHQIRTVPGQGKVIWPADSHAVKQTIDMGCWSEQETYHSSEVTKGWHAKALSDDCHEFEVFFDGQSQGVLDWALIGQHNIENAVMAIAAARHVGVAPSAAIDALARFVPPKRRLELLDTVNGVSVYDDFAHHPTAIATTIKGMRAKVGQTKITIVLEPRSNTMKSGVHKDTLAHSMLQADEAFLYQADTIDWNMKEAMEAAVIPVTVLHQIDDVVAKVAASAKPGDTIVVMSNGGFGGLHKKLLAALAVSPQLVEQAH | not soluble
MGSDKIHHHHHHLDGQALKQAVTPYFAGVLHEGLSRLKAEVYQEMEEIRLRAAQPLLLKIGESEWGLTSRGELTKKLPEAINASREDLYRTIASISDNSLYALEEEIRRGFITIPGGHRVGLAGQVIVQAAGIKGIKEFSSICFRLAREKKGCARTILPHIISTGTIVNTLIISPPRCGKTTILRDIARSISTGSSACPPHNIAIIDERSEIAGTHRGLAQLDVGIRSDVLDACPKSWGMMMAIRSLSPQVLIADEIGRKEDVEALQECVNAGVAVICSIHARNLEELSKRPLIKKLLSQGAFRLGVVLSRRNGPGTVEEIIRWD | not soluble
MGSDKIHHHHHHLDRYPQEELSDGSFWKTPDDANKVVSDLYGYLSTWDQDNDINSDNATMGIKWAAGNVSKGIYDPADQGWSGDYANVRQCNLILSKIDEIPDYPEADKTKALGQVYFFRAYIYFNLIRSFGDVPYIDKPLDLKDMEGITRMPRAEVYEKIMADFDKAIAALPTEWGASDYGRVTKGAAMAMKARAALYYGNWDTAATEAKNVMDLGLYELYDKDNTGKYAELFWEKADGCDEFILVTQFNYPDKTHYLMGWECFPTKGWGGMNPTQSLVDAFEDSEGAPISKSKIYDPTDPFKNRDPRLEVDILHDGEEMYGVTIKVAPLASSGSTGINQHNDATETGYYGQKWLDPSLDPLSDGWNMGKDWVHIRYAEVLLTYAEAKNELQGLDPEAFDAVNQVRRRVGMPELQNTDPSKPTYCATQDDLRQRIRNEWRVEFCLEGGKRMWDIRRWGIAKDVLNAPFEGLKYKIVDNPNDPDKKVDGGKMCILYQGDPIILSGSRYSDNNYLFPVPQSEIDLNPALTQNPGY | not soluble
MGSDKIHHHHHHLFLNSLKLKDFRNYKSLQVDFSNSINVLIGDNAQGKTNLLEAIYILSMARSHRDNNDRDLINWSSDFSDITGEVQSKMGKFPLEVRITRTGKKVFVNHLTENRLSDYIGNLHTVLFAPEDLDLVKGSPGVRRKFIDSEFGQMSANYLFNLLQYRSVLKNRNAYLKNIKWIGNNPKIDEDYLKVLNDQLIDFGSEIIFQRFVLVKELEKYSYQIHKAISRNEKLTIKYASFSGIDDQSTKEEISKIFNNQLLKNKTRELFLKSTSVGPHHDDLKFSINGKEVGSFASQGQQRTTALSVRLAEIEMMKYETGEYPILLLDDVLSELDGDRQTQLLNFIQDKVQTFLTTTSLSDVERDLIKDPKIYQVKGGTLVNG | not soluble
MGSDKIHHHHHHLTYNLLEGSGWMLKIYQVDSFTAVPFGGNPAGVCLLDEEIDERLYPRIASEMNLSETAFVRPGDEKNTYGLRWFTPKVEVKMCGHATLATAWIHFTELGVKGEISYETLSGKLGVRYVDGKIEMNFPSDNPYRVRIDEMLGRITGVEGECYYSSLTEKLLYIISSKSKLENLSFDFSLLETCDFGYTVKGLIVSSPGDEKFDFYSRYFAPWVGIDEDPVTGSAHTVLGPFWSEKLGRKNLRACQLSSRRGELDLELLPNSRILILGKAVTVIRGTISI | not soluble
MGSDKIHHHHHHMAADHVHCASCGQPLTGSYYVLINRPERFCPQCIATRPRCSTCGAPLGNHFWKLHDGRQQCDACHAVAIYDPVQAQHLFQQTAGMLAEGMGLRLHVGVAFRLVDAPTMARLRGPTPPGQDTLGLYRRQNHVRVIYLLYGLPTLIFRITAAHEYAHAWQAEHCPLLRNEFLREGHAEWVAYQHLLQLGSHKAAARMLDENHPYHEPLRYLLQLEAQLGIEGVNRYMMRVDIE | not soluble
MGSDKIHHHHHHMAAFQTAAQLARAVQSGETTPQQLLHGALARAEAVRGLNALVSLNSHAEEQAAAVQGRMQAGETLPLAGVPIVVKDNINVTGTRTTCGSRMLANYVSPYTATAAQKLQGAGAVIVGKANMDEFAMGSSTESSASGPTLNPWDHERVPGGSSGGSAVAVAAGISPVSLGSDTGGSVRQPAALCGVYGFKPTYGRVSRYGLVAYASSLDQIGPFARSAEDLALLMNVIAGHDPRDATSLDAPARFAVGGADSLRGLRVGVIRESLGGNTPGVEAALGATLDALRGAGAVVGEVSIPELEYAIAAYYLIAMPEASSNLARYDGMVYGERVPGGDVTRSMTLTREQGFGQEVQRRILLGTYALSSGYYDAYYAKAMKVRRLIADEFTTAFGQYDVLVTPTSPFPAFRRGEKASDPLAMYAADVDTVAVNLAGLPALSVPAGFEEVDGKRLPVGVQFIAPALQDERLLALAGALEAVGAVQLEMPQD | not soluble
MGSDKIHHHHHHMAAGCTTPMERRQANGNDEYVNAQTTAPLKVPEGLKSPNYSREYDIPTLGAKANRELVGKNLDIRPPLQVLPMAEGTRVEEGSDNVKVIVESFDNSLDLKQEIFGLLKDHLQSRNIEIVKEDFASGTLETGWIETQEVLESSLWGSDKVFNLKQRYQYQVEVRPHGRTGAVIINLVDHQESYDGDDLKTALSADDKRRYAIDMLNNSIAYMAVKREQAIKAKRVRESLGIGVELVDGAEEGDAFYLAQGDSIRYGLT | not soluble
MGSDKIHHHHHHMAATSNQIKSKVWDNKQEYHLTIESLRMLLENRIPLIRLKEFATPQECEILVAQAELFNFDCYQNVNPKIERIGITVFEYNRISKAAYFQAVERTTKLRDCIMAASFNPLERLMVKIQECTGATVRIASEPLYGSYYAGLIRKIEQGTQLHIDYAPLEQSKWEIGTVIYQLSWNLYLKFSPNNHGQTRIYDRQWQPGDEQYKLDSYGYGDTVIADADTIAFQPYVGDVFIFNTRNYHTVEPMDGQRVTFTSAIGLLPNGEIILWS | not soluble
MGSDKIHHHHHHMAAVALDQYLASVLKSSASDKNEIKLEAGNPDFDLFTIYLENHNTGIHRYRMDVSTILYVAKGTVTIKSAEKVINMRTGNVLLLTEGCKYEVSGQNDDTVLAKLKFAPGFEYRKYFNDFSYKGNRENKIIEQISDSLENEHVLWLKNNQITSASQVMQHIIGGYLDDELFAKALIQAELTAMLIISIRTQRMATPTNLDKTKFEKKSLDNYIDNHFADISLADAAKYFGFNPNYFSNMVKAKTGKSFVDHVGERRMQEARELLAQPDISLKEIISRVGYSSKSFFYKKFNQYYNMTPAAMRKELFRQANINLR | not soluble
MGSDKIHHHHHHMAAVDLEKLRASGAGKAIGVLTSGGDAQGMNAAVRAVTRMGIYVGAKVFLIYEGYEGLVEGGENIKQANWLSVSNIIQLGGTIIGSARCKAFTTREGRRAAAYNLVQHGITNLCVIGGDGSLTGANIFRSEWGSLLEELVAEGKISETTARTYSHLNIAGLVGSIDNDFCGTDMTIGTDSALHRIMEVIDAITTTAQSHQRTFVLEVMGRHCGYLALVSALASGADWLFIPEAPPEDGWENFMCERLGETRSRGSRLNIIIIAEGAIDRNGKPISSSYVKDLVVQRLGFDTRVTVLGHVQRGGTPSAFDRILSSKMGMEAVMALLEATPDTPACVVTLSGNQSVRLPLMECVQMTKEVQKAMDDKRFDEATQLRGGSFENNWNIYKLLAHQKPPKEKSNFSLAILNVGAPAAGMNAAVRSAVRTGISHGHTVYVVHDGFEGLAKGQVQEVGWHDVAGWLGRGGSMLGTKRTLPKGQLESIVENIRIYGIHALLVVGGFEAYEGVLQLVEARGRYEELCIVMCVIPATISNNVPGTDFSLGSDTAVNAAMESCDRIKQSASGTKRRVFIVETMGGYCGYLATVTGIAVGADAAYVFEDPFNIHDLKVNVEHMTEKMKTDIQRGLVLRNEKCHDYYTTEFLYNLYSSEGKGVFDCRTNVLGHLQQGGAPTPFDRNYGTKLGVKAMLWLSEKLREVYRKGRVFANAPDSACVIGLKKKAVAFSPVTELKKDTDFEHRMPREQWWLSLRLMLKMLAQYRISMAAYVSGELEHVTRRTLSMDKGF | not soluble
